In paper PMC7920882:

Columns and labels:
Experiment in all cases: BLI; reverse outlay: full-length IgG-like constructs (50 ug/mL) loaded on anti-human Fc tips; VEGF in 2-fold dilutions from 500 nM; 25 C, PBS with Kinetic Buffer
TRA-CT6 mAb^2 = molecular target: TRA-CT6 mAb^2
TRA-CT6ZW-FT = molecular target: TRA-CT6ZW-FT
TRA-CT6ZWY = molecular target: TRA-CT6ZWY
[1] = molecular target: TRA-CH3_(ZWHY)/CT6_(ZWLY)
[2] = molecular target: TRA-CT6_(ZWHY)/CH3_(ZWLY)

Substance: VEGF isomer 109 with N75Q mutation (ligand)
- Kd (TRA-CT6 mAb^2): 2.78 nM
- Kd (TRA-CT6ZW-FT): 1.48 nM
- Kd (TRA-CT6ZWY): 16.6 nM
- Kd [1]: 6.2 nM
- Kd [2]: 16.7 nM
